According to patent US12441811B2, “Compositions and methods for treating serpin B13 disorders” (REGENTS OF THE UNIVERSITY OF MINNESOTA, priority 2019, dated 2025):
Entries after “also recorded” stand apart in the source; their conditions may differ.

Assays:
[1] = test system: Ngn3+ endocrine progenitor cells; experiment: Ngn3+ cells in embryonic pancreas explants (E12.5) cultured in vitro; assay type: cell-based, mouse; conditions: for number of CK19+ epithelial cells: E12.5 explants with mAb vs control Ab
Procedure: Isolation and culture of embryonic pancreas explants. The isolation and culture of embryonic pancreas explants was performed as described elsewhere, with minor modifications.
Processing of pancreatic tissue for immunofluorescence microscopy. The pancreatic tissues were isolated and fixed either overnight (adult pancreases), or for one hour (embryonic pancreas explants), in 2% PFA (pH 7.4), followed by a two-step saturation process: first in a 30% sucrose solution in PBS and then in optimal cutting temperature (OCT) compound. After complete saturation, the tissues were imbedded in OCT using Cryomold and then snap frozen in an ethanol/dry ice bath. The OCT blocks were serially cut through the entire organ to obtain representative sections every 600 μm (6 to 8 sections per adult pancreas), 50 μm (12 to 14 sections per E16.5 embryonic pancreas), 35 μm (10 to 12 sections per E14.5 embryonic pancreas), or 15 μm (10 to 12 sections per E12.5 embryonic pancreas cultured for 1 to 3 days). For the embryonic linage tracing experiments, three largest sections were taken for the analysis. For all other experiments involving immunofluorescence microscopy, all obtained sections were analyzed. […]
(§1) The sections from the pancreases of embryos at age E14.5 and E16.5, and newborn pups (OP), were stained with anti-Ngn3 antibody to determine the total number of endocrine progenitors cells for all sections per explant combined (FIG. 9G, FIG. 17A). Alternatively, the sections representing the pancreases of embryos at age E12.5 (which are considerably smaller) were stained with both anti-Ngn3 and anti-CK19 antibodies to determine the fraction of CK19-positive area that was occupied by Ngn3− positive staining (FIGS. 9D, 10A, 10C, 12D, 12G, 12J and FIGS. 15A, 20B). The following formula was used to adjust for any differences in the pancreas size: (Ngn3^+ cell number/μm^2 of CK19^+ cells)×10^5.
Image analysis. Embryonic images were processed with a plugin-Trainable Weka Segmentation v3.2.28 (Hamilton, New Zealand) for ImageJ v.1.52jv software. To classify and quantify the images in unbiased fashion, we defined the following four classes for the analysis: Ngn3^+ cells, the clusters of cytokeratin 19^+ cells, the negatively stained areas, and background (e.g., the area outside of tissue sample). Alternatively, the Visiopharm version 6.0 software (Visiopharm, Hoerholm, Denmark) with Author module was used to create applications to outline Ngn3^+ cells or double positive cells expressing YFP and insulin using preprocessing and postprocessing steps, when necessary. In addition, the Engine module of the Visiophram module was used to execute created applications and unbiasedly analyze the images. For the unbiased quantitative analysis of β-cells and islets in the whole pancreatic sections, Visiopharm Author module was trained to recognize insulin-positive β-cell clusters with diameter greater than 50 μm as well as negatively stained section area. In all studies involving microscopy the treatment assignments were blinded to investigators who performed data analysis.

[2] = test system: Ngn3+ endocrine progenitor cells; experiment: Ngn3+ cells in embryonic pancreas after antibody injection into pregnant mice; assay type: in vivo, mouse; conditions: for number of Ngn3+ cells in the embryonic pancreas: pregnant mice i.p. 50 μg daily E10.5 through E13.5, E16.5 and birth, vs control Ab
Procedure: The control mouse mAb (clone TIB92) was from ATCC (Manassas, VA, USA). The recombinant human control Ab (cat. No 403502) was from BioLegend (San Diego, CA). In most of the experiments, anti-serpinB13 mAb (clone B29) or control mouse mAb was injected i.p. into pregnant female mice at 50 μg for four consecutive days, starting at gestational day E10.5 (total dose of 200 μg). In the lineage tracing experiments in adult mice, B29 was injected i.p. for 7 days at 100 μg/injection during the first week after STZ treatment (total dose of 700 μg).
Processing of pancreatic tissue for immunofluorescence microscopy. The pancreatic tissues were isolated and fixed either overnight (adult pancreases), or for one hour (embryonic pancreas explants), in 2% PFA (pH 7.4), followed by a two-step saturation process: first in a 30% sucrose solution in PBS and then in optimal cutting temperature (OCT) compound. After complete saturation, the tissues were imbedded in OCT using Cryomold and then snap frozen in an ethanol/dry ice bath. The OCT blocks were serially cut through the entire organ to obtain representative sections every 600 μm (6 to 8 sections per adult pancreas), 50 μm (12 to 14 sections per E16.5 embryonic pancreas), 35 μm (10 to 12 sections per E14.5 embryonic pancreas), or 15 μm (10 to 12 sections per E12.5 embryonic pancreas cultured for 1 to 3 days). For the embryonic linage tracing experiments, three largest sections were taken for the analysis. For all other experiments involving immunofluorescence microscopy, all obtained sections were analyzed.
as §1
Image analysis. […] To classify and quantify the images in unbiased fashion, we defined the following four classes for the analysis: Ngn3^+ cells, the clusters of cytokeratin 19^+ cells, the negatively stained areas, and background (e.g., the area outside of tissue sample). […] For the unbiased quantitative analysis of β-cells and islets in the whole pancreatic sections, Visiopharm Author module was trained to recognize insulin-positive β-cell clusters with diameter greater than 50 μm as well as negatively stained section area. […]

catL = conditions: previously shown by the applicant; cited from earlier work

B1: B29: mouse monoclonal antibody to serpin B13, clone B29; heavy chain SEQ ID NO:14, kappa light chain SEQ ID NO:16 (antibody, V domains shown)
VH: QIQLVQSGPELKKPGETVKISCKASGYTFTTYGMSWVKQAPGKGLKWMGWINTYSGMPTYADDFKGRFAFSLETSATTAYLQINNLKNEDTATYFCARPLLGLDYWGQGTTLTVSS
VL: DIVMTQTPLSLSVTIGQPASISCKSSQSLLHSDGKTFLNWFLQRPGQSPKLLIYLVSKLESGIPDRFSGSGSGTDFTLKISRVEVEDLGVYYCLQHTHFPLTFGAGTKLEIK
Ngn3+ cell population, upregulation by mAb ([1]; CatL-deficient embryonic pancreas explants, 48-hour culture): completely refractory to upregulation | number of CK19+ epithelial cells [1]: remained unchanged | number of CK19+ epithelial cells ([1]; listed as mAb): did not change | number of Ngn3+ cells ([1]; E12.5 explants, antibody at 1 μg/mL vs control Ab): significant increase | fractions of pancreatic microscopic sections positively stained with anti-insulin antibody ([2]; E16.5 embryos exposed in vivo vs control Ab): significantly higher fractions | Ngn3 protein levels ([2]; Western blot, E16.5, pregnant mice i.p. 50 μg daily E10.5-E13.5): robust increase | number of Ngn3+ cells in the embryonic pancreas [2]: increased; also recorded: significant increase; also recorded: robust increase | number of Ngn3+ cells in the embryonic pancreas ([2]; listed as mAb): robust increase | inhibitory properties of serpinB13 (catL): blocked
